{"source": "patent US20090324579A1", "about": "(UNIVERSITY OF WINDSOR, published 2009)", "binders": {"B1": {"name": "Casp1 VHH displayed on phage (VHH)", "VHH": "DVQLQASGGGLVQPGGSLRLSCAASGSLSRITVMGWYRQAPGKQRELVAIITSSGGTNYADSVKGRFTISRDNAKNTVYLQMNSLKPEDTAVYYCLAARGYDRYWGRGTQVTVSS", "notes": "also called Casp1 sdAb"}, "B2": {"name": "Casp2 VHH displayed on phage (VHH)", "VHH": "DVQLQASGGGLVQAGGSLRLSCAASTNIFRDKFMAWYRQAPGKQRELVASITTGGRTDYADSVKGRFTISRDNTKDTMYLQMNSLKPEDTAVYYCAGFLGRTYWGQGTQVTVSS", "notes": "also called Casp2 sdAb"}}, "biological_target": "T1, BSA (UniProt P02769 25-607)", "T1 construct": "also called control BSA antigen; control antigen", "T1 sequence (P02769 25-607 limits assumed)": "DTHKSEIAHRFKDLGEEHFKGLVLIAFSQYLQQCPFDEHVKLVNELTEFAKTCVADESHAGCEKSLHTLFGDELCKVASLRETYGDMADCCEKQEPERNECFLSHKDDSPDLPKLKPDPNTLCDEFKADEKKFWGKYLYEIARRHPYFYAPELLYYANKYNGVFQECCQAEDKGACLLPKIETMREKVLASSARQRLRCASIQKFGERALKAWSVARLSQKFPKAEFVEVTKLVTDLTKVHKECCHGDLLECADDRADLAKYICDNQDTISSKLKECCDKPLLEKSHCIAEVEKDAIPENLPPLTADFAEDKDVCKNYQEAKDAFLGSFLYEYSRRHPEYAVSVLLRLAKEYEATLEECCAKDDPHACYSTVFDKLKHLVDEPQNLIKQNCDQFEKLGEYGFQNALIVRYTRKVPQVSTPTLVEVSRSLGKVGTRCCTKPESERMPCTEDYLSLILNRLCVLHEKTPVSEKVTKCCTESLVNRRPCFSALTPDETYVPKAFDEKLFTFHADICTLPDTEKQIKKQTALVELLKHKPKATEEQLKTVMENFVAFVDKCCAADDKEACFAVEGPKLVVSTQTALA", "assay": "phage ELISA", "data": [{"binder": "B1", "values": [{"measurement": "binding result", "value": "no binding"}]}, {"binder": "B2", "values": [{"measurement": "binding result", "value": "no binding"}]}]}
